The target of series [1] is T1, LbFAE (Lentilactobacillus buchneri, UniProt D7RU28).
T1 construct: gene faeA; synthetic gene in pNIC28-Bsa4, E. coli BL21(DE3)-T1; Ni-NTA and SEC; homodimer about 60 kDa; monomer model 260 residues; catalytic triad Ser114, Asp206, His233
The series can be described thus: X-ray crystal structure, […] Å, wild-type crystal soaked with FA. It is filed as binding. Conditions: active site; crystal grown with 0.1 M sodium cacodylate pH 6.5, 0.2 M calcium acetate, PEG 8000.

Substrate in series [2]: COc1cc(/C=C/C(=O)Oc2ccc([N+](=O)[O-])cc2)ccc1O
The series can be described thus: spectrophotometric assay, Michaelis-Menten fit. The class given is biochemical, Lentilactobacillus buchneri. Conditions: pH 6.5, 40 °C, free enzyme. An excerpt:
spectrophotometric assay, Michaelis-Menten fit on LbFAE

Substrate in series [3]: COC(=O)/C=C/c1ccc(O)c(OC)c1
In words: HPLC of released ferulic acid, Michaelis-Menten fit. Conditions: pH 6.5, 40 °C, free enzyme. It is filed as biochemical, Lentilactobacillus buchneri. An excerpt:
HPLC of released ferulic acid, Michaelis-Menten fit on LbFAE

Series [4] concerns the molecule itself. In words: SEC; HiLoad 16/60 Superdex 200 prep grade, 20 mM Hepes pH 7.5, 150 mM NaCl, 1 ml/min, 4°C; calibrated with ferritin, aldolase, conalbumin, ribonuclease A. For orientation: SEC sorts molecules by how far they enter the pores of the column.

Regarding `COc1cc(/C=C/C(=O)O)ccc1O` [FA, 4-hydroxy-3-methoxy-cinnamic acid], the “X-ray crystal structure, 1.90 Å, wild-type crystal soaked with FA” value in series [1] is reported as “only FA (i.e., the product) resulted in a complex with LbFAE”.

B1: feruloyl esterase (LbFAE) from Lentilactobacillus buchneri LN 4017, wild type (enzyme, UniProt D7RU28 1-260, looked up)
chain: MIKFVTTEINGLTLRGTAHVPDGEPGQQFPTVLMFHGFGAVRDEGFRLFIQMSNRLMENGIAAVRFDFGCHGESDGEFEDFTFSQELNEGSALIDAVKSMSFVDSTKFSLLGESLGSVAASIVAGKRSTELTSLCMWSPAASFLDEILNDHTLQGKTVDNVEKDGYFDFYGLKLGKAFFDDLKNINIFDNAKKYQGPVKIVYGTNDFIPEKYSHKYMDGYENGELVIVQDGDHGWQSVPSRKRILDETMKFFRKTLLEAK
notes: Feruloyl esterase annotated as type-A FAE (faeA) from L. buchneri silage additive strain LN4017 (ATCC PTA-6138); synthetic gene amplified with primers from the ATG start to the stop codon; the monomer structure includes 260 amino acids; Cloned into pNIC28-Bsa4 by LIC; Theoretical mass with His6 tag and TEV site 31.6 kDa; also called faeA; source: E. coli BL21(DE3)-T1, purified (Ni-NTA, SEC)
Turning to B1, in series [2], the Km (usually the substrate concentration at which the rate is half of its maximum) was 900 µM; the Vmax (in general, the rate approached at saturating substrate) was 6.9 µmol/min/mg; the kcat (as a rule, the maximal rate divided by the concentration of active sites) came out at 6.7 s⁻¹; the kcat/Km (as a rule, the second-order rate constant that governs catalysis at low substrate concentration) was determined as 7540 M⁻¹ s⁻¹. Besides, in series [3], the Km is 65 µM, the Vmax is 6.57 µmol/min/mg, the kcat came out at 16.3 s⁻¹ and the kcat/Km was found to be 252000 M⁻¹ s⁻¹. The stoichiometry N (in general, the number of molecules, sites or subunits per partner or assembly) in series [4] is 2.

The values above are taken from article PMC9776664, “Crystal structure of the feruloyl esterase from Lentilactobacillus buchneri reveals a novel homodimeric state” (Frontiers in Microbiology, 2022).
